Results as given in patent publication US20240230671A9, “COMPOSITIONS AND METHODS FOR IDENTIFICATION OF CROSS-REACTIVE ALLERGENIC PROTEINS AND TREATMENT OF ALLERGIES” (Alladapt Immunotherapeutics, Inc., priority 2021, published 2024).

How the values were obtained:
[1] = system: dendritic cells; assay: Mouse study: CD4+ T cells from peptide-dosed mice incubated with antigen-loaded dendritic cells; type: cell-based; conditions: 50 ug peptide orally for 4 weeks; tetanus toxoid as control
Method: Mouse Study: A composition comprising 50 ug of the cross-reactive peptide comprising the MHC-II-binding T-cell epitope 5′-[…]-3′ and a pharmaceutical acceptable carrier is administered orally to mice for 4 weeks. Two weeks after the last dose, blood is drawn from a peripheral vein and CD4+ T cells are purified by cell sorting on magnetic beads. CD4+ T-cells are added to culture medium in which histocompatible dendritic cells, used as antigen presenting cells, are incubated with either the peptide sequence or with tetanus toxoid as a control for 2 hr at room temperature. The cells are then washed and purified CD4+ T-cells are added to culture medium. […] Incubation of CD4+ T-cells with dendritic cells loaded with the hazelnut Cor_i_9 antigen results in dendritic cell apoptosis.

[2] = Single allergen subcutaneous immunotherapy in walnut and hazelnut allergic subjects; type: in vivo
[3] = system: IgE; assay: ALEX2 chip ELISA-based multiplex assay for IgE binding to allergens; parameters: species or system human
Description: In another example, forty-two human serum samples with self-reported clinical allergies were obtained and analyzed in triplicate on an ALEX2 chip (developed by Macro Array Diagnostics), which enables an ELISA-based multiplex assay for the detection of IgE adsorption to allergen components and extracts. […] The assay detects the binding of IgE to these allergens in an ELISA-based multiplex fashion. The dynamic range of the chip spans a little over two orders of magnitude, 0.3-50 kUA/L.

With HWNLNAHSVVYALRG the “apoptosis of antigen-presenting dendritic cells by CD4+ T cells” value [1] was “induce apoptosis of dendritic cells presenting the Cor_i_9 antigen” and the “allergic reaction after immunotherapy” value [2] was “fail to react to both walnuts and hazelnuts”.

B1: Mal d 1: Apple allergen, Bet v 1 family, on ALEX2 chip (protein, UniProt P43211 2-159, looked up)
Major allergen Mal d 1: GVYTFENEFTSEIPPSRLFKAFVLDADNLIPKIAPQAIKQAEILEGNGGPGTIKKITFGEGSQYGYVKHRIDSIDEASYSYSYTLIEGDALTDTIEKISYETKLVACGSGSTIKSISHYHTKGNIEIKEEHVKVGKEKAHGLFKLIESYLKDHPDAYN
For B1, the “Pearson Correlation coefficient based on ALEX data” value ([3]; Bet v 1 family, correlation of IgE levels with Bet v 1, 22 Bet v 1-positive human serum samples) was 0.62.

B2: Derp: European house dust mite allergen, Tropomyosin family, on ALEX2 chip (protein, UniProt O18416 1-284, looked up)
Tropomyosin: MEAIKNKMQAMKLEKDNAIDRAEIAEQKARDANLRAEKSEEEVRALQKKIQQIENELDQVQEQLSAANTKLEEKEKALQTAEGDVAALNRRIQLIEEDLERSEERLKIATAKLEEASQSADESERMRKMLEHRSITDEERMEGLENQLKEARMMAEDADRKYDEVARKLAMVEADLERAEERAETGESKIVELEEELRVVGNNLKSLEVSEEKAQQREEAHEQQIRIMTTKLKEAEARAEFAERSVQKLQKEVGRLEDELVHEKEKYKSISDELDQTFAELTGY
modifications: tropomyosin
notes: European house dust mite allergen, Tropomyosin family, on ALEX2 chip
With B2 the “Pearson Correlation coefficient based on ALEX data” value ([3]; Tropomyosin family, correlation of IgE levels with Penm1) was 0.99.

B3: Bet v 1: Silver birch allergen, Bet v 1 family, recombinant allergen on ALEX2 chip (protein)
chain: GVFNYETETTSVIPAARLFKAFILDGDNLFPKVAPQAISSVENIEGNGGPGTIKKISFPEGFPFKYVKDRVDEVDHTNFKYNYSVIEGGPIGDTLEKISNEIKIVATPDGGSILKISNKYHTKGDHEVKAEQVKASKEMGETLLRAVESYLLAHSDAYN
For B3, the “samples with a positive value for the allergen” value ([3]; of forty two human serum samples run on the ALEX2 chip) was 22 samples.
